Target: SHOX full length (Homo sapiens) (UniProt O15266)
Assay: cell_activity
Details: luciferase

Chain of SHOX full length (Homo sapiens) (O15266 whole entry): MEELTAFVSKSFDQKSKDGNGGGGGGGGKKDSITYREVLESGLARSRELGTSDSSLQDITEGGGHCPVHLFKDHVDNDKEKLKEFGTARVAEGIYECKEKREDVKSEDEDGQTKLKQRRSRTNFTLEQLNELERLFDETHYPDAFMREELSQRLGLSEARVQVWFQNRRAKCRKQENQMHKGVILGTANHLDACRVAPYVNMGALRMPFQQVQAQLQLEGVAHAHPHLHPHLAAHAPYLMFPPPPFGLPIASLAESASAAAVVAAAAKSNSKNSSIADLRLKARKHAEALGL

Substance | activity (fold induction) (forward orientation, reverse 8-fold) | activity (fold induction)
BNP 5' flanking region reporter (BNP for / BNP rev) | 10 | 
p3XG reporter (SHOX binding site before SV40 core promoter) |  | 2

Source: US20080293632
